Values belong to the binder of their own block, whether it stands above or below them.
Columns and labels:
rhesus monkey CRTh2 [1] = target: T1, rhesus monkey CRTh2 (rhesus monkey, UniProt Q9Y5Y4 1-395 (human entry)); assay: flow cytometry, 293 cells expressing amino-terminal gD-tagged rhesus CRTh2; antibody at 10, 1 and 0.1 ug/ml
T1 construct: also native on primary rhesus basophils and eosinophils; also called rhesus CRTh2
T1 chain: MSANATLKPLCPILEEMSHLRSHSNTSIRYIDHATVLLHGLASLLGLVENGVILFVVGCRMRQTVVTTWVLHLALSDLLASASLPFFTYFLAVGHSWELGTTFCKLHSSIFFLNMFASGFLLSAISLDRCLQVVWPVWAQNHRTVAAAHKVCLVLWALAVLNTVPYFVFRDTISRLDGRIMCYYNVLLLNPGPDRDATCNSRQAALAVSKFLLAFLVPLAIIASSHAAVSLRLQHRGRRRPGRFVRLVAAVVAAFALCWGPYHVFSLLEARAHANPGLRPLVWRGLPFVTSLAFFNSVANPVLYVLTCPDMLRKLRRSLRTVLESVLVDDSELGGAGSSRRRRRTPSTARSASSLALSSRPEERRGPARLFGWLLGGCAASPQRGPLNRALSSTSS

human CRTh2 [2] = target: T2, human CRTh2 (human, UniProt Q9Y5Y4 1-395); assay: radioligand cell binding assay (Scatchard), Fab, 293 cells expressing human CRTh2
T2 construct: also native CRTh2 on primary human basophils, eosinophils and Th2 cells; also called hCRTh2; chemoattractant receptor-homologous molecule expressed on T helper 2 cells
T2 sequence: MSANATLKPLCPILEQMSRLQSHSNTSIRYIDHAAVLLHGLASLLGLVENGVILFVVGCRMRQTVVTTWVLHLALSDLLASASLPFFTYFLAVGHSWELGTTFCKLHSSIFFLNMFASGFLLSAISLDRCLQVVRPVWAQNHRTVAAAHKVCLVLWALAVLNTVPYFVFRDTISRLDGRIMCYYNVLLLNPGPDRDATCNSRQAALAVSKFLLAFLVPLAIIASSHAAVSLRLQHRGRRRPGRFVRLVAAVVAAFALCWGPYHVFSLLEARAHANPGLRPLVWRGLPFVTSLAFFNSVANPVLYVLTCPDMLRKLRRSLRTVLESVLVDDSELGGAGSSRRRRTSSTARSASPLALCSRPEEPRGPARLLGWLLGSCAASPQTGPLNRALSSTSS
Protocol: (§1) The equilibrium dissociation constants (KD) for anti-CRTH2 antibodies binding to cells expressing recombinant CRTh2 receptor were determined using a radioligand cell binding assay. […] The cells expressing the CRTh2 receptor were incubated for 2 hours at room temperature with a fixed concentration of iodinated anti-CRTh2 antibody combined with increasing concentrations of unlabeled anti-CRTh2 antibody and including a zero-added, buffer only sample. After the 2-hour incubation, the competition reactions were transferred to a Millipore Multiscreen filter plate and washed 4 times with binding buffer to separate the free from bound iodinated antibody. The filters were counted on a Wallac Wizard 1470 gamma counter. The binding data was evaluated using NewLigand software (Genentech), which uses the fitting algorithm of Munson and Rodbard to determine the binding affinity of the anti-CRTh2 antibody (Munson and Rodbard, Anal. Biochem, 1980; 107: 220-239).
(§2) To obtain a direct measurement of the KD value of humanized antibodies h19A2.v12 and h19A2.v60, Fab fragments of these antibodies were generated and subjected to radioligand cell binding assays (FIG. 4B).

cynomolgus monkey CRTh2 [3] = target: T3, cynomolgus monkey CRTh2 (cynomolgus monkey, UniProt Q9Y5Y4 1-395 (human entry)); assay: radioligand cell binding assay (Scatchard), Fab, 293 cells expressing cynomolgus monkey CRTh2
T3 construct: also native on primary cyno basophils and eosinophils; also called cyno CRTh2; cynomologous CRTh2
T3 chain: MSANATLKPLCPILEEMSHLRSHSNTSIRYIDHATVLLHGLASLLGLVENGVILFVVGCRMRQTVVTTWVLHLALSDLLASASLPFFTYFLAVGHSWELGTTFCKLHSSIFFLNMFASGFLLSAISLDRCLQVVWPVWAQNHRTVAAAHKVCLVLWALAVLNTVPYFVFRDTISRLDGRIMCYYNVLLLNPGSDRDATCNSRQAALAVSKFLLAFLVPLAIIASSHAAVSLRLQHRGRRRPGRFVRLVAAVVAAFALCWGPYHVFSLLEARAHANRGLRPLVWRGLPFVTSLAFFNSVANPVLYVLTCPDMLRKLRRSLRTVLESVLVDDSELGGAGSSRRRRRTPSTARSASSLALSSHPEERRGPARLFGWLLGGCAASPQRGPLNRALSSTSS
Protocol: After the 2-hour incubation, the competition reactions were transferred to a Millipore Multiscreen filter plate and washed 4 times with binding buffer to separate the free from bound iodinated antibody. The filters were counted on a Wallac Wizard 1470 gamma counter. The binding data was evaluated using NewLigand software (Genentech), which uses the fitting algorithm of Munson and Rodbard to determine the binding affinity of the anti-CRTh2 antibody (Munson and Rodbard, Anal. Biochem, 1980; 107: 220-239).
as §2
(§3) Radiolabeled ligand analysis with homologous competition was performed to assess the dissociation constant (KD) of anti-CRTh2 antibodies to surface expressed human and cynomolgus monkey CRTh2 on 293 cells. To obtain a direct measurement of the KD value of humanized antibodies h19A2.v52 and h19A2.v46, Fab fragments of these antibodies were generated (FIG. 16).

cynomolgus monkey CRTh2 [4] = target: T3, cynomolgus monkey CRTh2; assay: ratio of Scatchard KD values, cyno against human CRTh2 on 293 cells
Protocol: The filters were counted on a Wallac Wizard 1470 gamma counter. The binding data was evaluated using NewLigand software (Genentech), which uses the fitting algorithm of Munson and Rodbard to determine the binding affinity of the anti-CRTh2 antibody (Munson and Rodbard, Anal. Biochem, 1980; 107: 220-239).
as §2, §3

rhesus monkey CRTh2 [5] = target: T1, rhesus monkey CRTh2; assay: flow cytometry, 293 cells expressing rhesus CRTh2; antibody at 0.55, 0.18, 0.06, 0.02 and 0.006 ug/ml [Cont.]
human CRTh2 [6] = target: T2, human CRTh2; assay: flow cytometry, 293 cells expressing amino-terminal gD-tagged human CRTh2; antibody at 10, 1 and 0.1 ug/ml
rhesus monkey CRTh2 [7] = target: T1, rhesus monkey CRTh2; assay: flow cytometry, 293 cells expressing rhesus CRTh2 [Cont.]
cynomolgus monkey CRTh2 [8] = target: T3, cynomolgus monkey CRTh2; assay: flow cytometry, 293 cells expressing cynomolgus CRTh2 [Cont.]
human CRTh2 [9] = target: T2, human CRTh2; assay: flow cytometry on basophils and eosinophils of human PBMC; antibody at 5 and 0.5 ug/ml, labelled anti-mouse IgG [Cont.]
human CRTh2 [10] = target: T2, human CRTh2; assay: radioligand cell binding assay with homologous competition (Scatchard), 293 cells expressing human CRTh2
Protocol: as §1, §2

B1: humanized and engineered anti-CRTh2 antibody hu19A2.v12 (antibody, human IgG1, kappa, V domains shown)
VH: EVQLVESGGGLVQPGGSLRLSCAASGFTFSSYSMSWVRQAPGKGLEWVAYISNGGSTTDYPGTVEGRFTISRDNSKNTLYLQMNSLRAEDTAVYYCARHRTNWDFDYWGQGTLVTVSS
VL: DIQMTQSPSSLSASVGDRVTITCRASENIYWNLAWYQQKPGKAPKLVVYAATQLADGVPSRFSGSGSGTDYTLTISSLQPEDFATYYCQHFWITPWTFGQGTKVEIKR
notes: Human IgG1; whole antibody as used in flow cytometry; also called h19A2.v12
binding result (rhesus monkey CRTh2 [1]): binds

B2: h19A2.v46 Fab fragment (Fab, V domains shown)
VH: EVQLVESGGGLVQPGGSLRLSCAASGFTFSSYLMSWVRQAPGKGLEWVARISNGGSTTDYPGTVEGRFTISRDNSKNTLYLQMNSLRAEDTAVYYCARHRTNWDFDYWGQGTLVTVSS
VL: DIQMTQSPSSLSASVGDRVTITCRASENIYWNLAWYQQKPGKAPKLVVYAATQLADGVPSRFSGSGSGTDYTLTISSLQPEDFATYYCQHFWITPWTFGQGTKVEIK
notes: Fab fragment of the humanized IgG; also called h19A2.v46 (Fab fragment of IgG)
Kd (human CRTh2 [2]): 0.0064 µM
Kd (cynomolgus monkey CRTh2 [3]): 0.0086 µM

B4: humanized affinity matured anti-CRTh2 antibody hu19A2.v46 (antibody, human IgG1, kappa, V domains shown)
VH: EVQLVESGGGLVQPGGSLRLSCAASGFTFSSYLMSWVRQAPGKGLEWVARISNGGSTTDYPGTVEGRFTISRDNSKNTLYLQMNSLRAEDTAVYYCARHRTNWDFDYWGQGTLVTVSS
VL: DIQMTQSPSSLSASVGDRVTITCRASENIYWNLAWYQQKPGKAPKLVVYAATQLADGVPSRFSGSGSGTDYTLTISSLQPEDFATYYCQHFWITPWTFGQGTKVEIKR
notes: Human IgG1; whole antibody as used in flow cytometry; also called h19A2.v46
binding result (rhesus monkey CRTh2 [5]): binds

B6: humanized affinity matured anti-CRTh2 antibody hu19A2.v52 (antibody, human IgG1, kappa, V domains shown)
VH: EVQLVESGGGLVQPGGSLRLSCAASGFTFSSYLMSWVRQAPGKGLEWVARISNGGSTTDYPGTVEGRFTISRDNSKNTLYLQMNSLRAEDTAVYYCARHRTNWDFDYWGQGTLVTVSS
VL: DIQMTQSPSSLSASVGDRVTITCRASENIYYNLAWYQQKPGKAPKLVVYAATQLADGVPSRFSGSGSGTDYTLTISSLQPEDFATYYCQHFWITPWTFGQGTKVEIKR
notes: Human IgG1; whole antibody as used in flow cytometry and the cAMP assay; also called h19A2.v52; h19A2.52
binding result (rhesus monkey CRTh2 [5]): binds

B8: humanized anti-CRTh2 antibody hu19A2.v1 (antibody, human IgG1, kappa, V domains shown)
VH: EVQLVESGGGLVQPGGSLRLSCAASGFTFSSYSMSWVRQAPGKGLEWVAYISNGGSTTYYPGTVEGRFTISRDNSKNTLYLQMNSLRAEDTAVYYCARHRTNWDFDYWGQGTLVTVSS
VL: DIQMTQSPSSLSASVGDRVTITCRASENIYSNLAWYQQKPGKAPKLVVYAATQLADGVPSRFSGSGSGTDYTLTISSLQPEDFATYYCQHFWITPWTFGQGTKVEIKR
notes: also called h19A2.v1
binding result (human CRTh2 [6]): binds

The next lines start with the values.

relative binding affinity for human versus cyno CRTh2 (cynomolgus monkey CRTh2 [4]): ≤ 3 fold
Kd (human CRTh2 [2]): 0.051 µM
Kd (cynomolgus monkey CRTh2 [3]): 0.152 µM
B3: h19A2.v12 Fab fragment (Fab, V domains shown)
VH: EVQLVESGGGLVQPGGSLRLSCAASGFTFSSYSMSWVRQAPGKGLEWVAYISNGGSTTDYPGTVEGRFTISRDNSKNTLYLQMNSLRAEDTAVYYCARHRTNWDFDYWGQGTLVTVSS
VL: DIQMTQSPSSLSASVGDRVTITCRASENIYWNLAWYQQKPGKAPKLVVYAATQLADGVPSRFSGSGSGTDYTLTISSLQPEDFATYYCQHFWITPWTFGQGTKVEIK
notes: Fab fragment of the humanized IgG, 125I-labelled in the radioligand assay; also called h19A2.v12 (Fab fragment of IgG); h19A2.12

relative binding affinity for human versus cynomolgus CRTh2 (cynomolgus monkey CRTh2 [4]): ≤ 2 fold
Kd (human CRTh2 [2]): 0.0137 µM
Kd (cynomolgus monkey CRTh2 [3]): 0.0213 µM
B5: h19A2.v52 Fab fragment (Fab, V domains shown)
VH: EVQLVESGGGLVQPGGSLRLSCAASGFTFSSYLMSWVRQAPGKGLEWVARISNGGSTTDYPGTVEGRFTISRDNSKNTLYLQMNSLRAEDTAVYYCARHRTNWDFDYWGQGTLVTVSS
VL: DIQMTQSPSSLSASVGDRVTITCRASENIYYNLAWYQQKPGKAPKLVVYAATQLADGVPSRFSGSGSGTDYTLTISSLQPEDFATYYCQHFWITPWTFGQGTKVEIK
notes: Fab fragment of the humanized IgG; also called h19A2.v52 (Fab fragment of IgG); h19A2.52

Kd (human CRTh2 [2]): 0.056 µM
Kd (cynomolgus monkey CRTh2 [3]): 0.039 µM
B7: h19A2.v60 Fab fragment (Fab, V domains shown)
VH: EVQLVESGGGLVQPGGSLRLSCAASGFTFSSYLMSWVRQAPGKGLEWVARISNGGSTTDYPGTVEGRFTISRDNSKNTLYLQMNSLRAEDTAVYYCARHRTNWDFDYWGQGTLVTVSS
VL: DIQMTQSPSSLSASVGDRVTITCRASENIYYNLAWYQQKPGKAPKLLIYAATQLAEGVPSRFSGSGSGTDYTLTISSLQPEDFATYYCQHFWITPWTFGQGTKVEIK
notes: Fab fragment of the humanized IgG; also called h19A2.v60 (Fab fragment of IgG)

binding result (rhesus monkey CRTh2 [7]): no binding (tested: 20 ug/ml)
binding result (cynomolgus monkey CRTh2 [8]): no binding (tested: 20 ug/ml)
B9: murine anti-CRTh2 antibody 31A5 (antibody, mouse IgG2a, V domains shown)
VH: QVQLKESGPGLVAPSQSLSITCTVSGFSLTGYGVNWVRQPPGKGLEWLGMIWDDGTTDFDSALRSRLSISKDNSKSQVFLKMNSLQTDDTARYFCARGDYGYAMDYWGQGTSVTVSS
VL: DIQMTQSPASLSVSVGETVTITCRASVNIYSNLAWYQQRQGKSPQLLVYAATNLAEGVPSRFSGSGSGTQYSLKINSLQSEDFGSYYCQHFWVTPYTFGGGTKLEIK
notes: Mouse monoclonal (hybridoma antibody; heavy chain also recloned with mouse IgG2a Fc); also called mu31A5

binding result (rhesus monkey CRTh2 [7]): no binding (tested: 20 ug/ml)
binding result (cynomolgus monkey CRTh2 [8]): no binding (tested: 20 ug/ml)
binding result (human CRTh2 [9]): binds
B10: murine anti-CRTh2 antibody 3C12 (antibody, mouse IgG2a, V domains shown)
VH: QVQLQQSGADLVRPGTSVKVSCKASGYAFTNYLIDWVKQRPGQGLEWIGAIHPGSGRTHYNEKFKGKATLTADKSSSAAYMQISSLTSDDSAVFFCARSGGSSFDYYAMDYWGQGTSVTVSS
VL: DIQMTQSPSSLSASLGERVSLTCRASQEIGGYLSWLQQKPDGTFKRLIYAASTLDSGVPKRFSGSRSGSDYSLTISSLESEDFADYYCLQYANYPYTFGGGTKLEIK
notes: Mouse monoclonal (hybridoma antibody; heavy chain also recloned with mouse IgG2a Fc); also called mu3C12

Kd (human CRTh2 [10]): 0.0026 µM
B11: murine anti-CRTh2 antibody 8B1 (antibody, V domains shown)
VH: QVQLQQSGTGLVRPGTSVRVSCKASGYAFITYLIEWIKQRPGQGLEWIGVIHPGSGNSHYNEKFKGKATLTADTSSSTAYMQLSSLTSGDSAVYFCARSGSSSFDYYAMDFWGQGTSVTVSS
VL: DIQMTQSPSSLSASLGERVSLTCRASQEISGYFSWLQQKPDGTIKRLIYAASTLDSGVPKRFSGSRSGSDYSLTISSLESEDFADYYCLQYANYPYTFGGGTKLEIK
notes: Mouse monoclonal, hybridoma antibody or recloned with mouse IgG2a Fc; whole IgG in the Scatchard assay; also called mu8B1; Mab 8B1
